Source: the DeepSol protein solubility set

Experiment: soluble on expression in E. coli; label from the status in PepcDB or PDB records

Row | Sequence | soluble on expression in E. coli
1 | MSLIRSMTGFGRASNDNGRLGFNVEIKSVNHRYFDLNIKLPRNLISLEEKIRKEVGNKIKRGKVDIFITQNVYDSSTTNVNLNKGLAYNYCECLKQIRDDFNVLDDISVSLISKFPDVITVTQNEEDLDEISSLLLKPINEAVDTMLSMREKEGARLKEDIEGKLTNIEELLVNVEKRAPYTVENYRNKLEERIKDLLVDNQVDEAKLAMEVTIFADKSCIDEEIVRLKSHISQFKSTLSENEPVGRKLDFIVQEMNREANTINSKSNDIDIVHCVLDIKNEIEKIREQIQNIEEGHHHHHH | soluble
2 | MGSDKIHHHHHHMRIPEEIIKLVDTPEFQRLRGVKQLGLANLVYPGANHTRFEHSLGTWYLARKLSLELQLPREDSLLIQLAALLHDIGHGPFSHTFERIYRDRLDFHDHMEVSRRIVEGKIQICEDGGELPDIISSLGYEPREVGELIVGKHKKRYLRMIIHGDIDVDQLDYLTRDAHYTGVAHGIIDLERLLTVMRVFNGELVIDEKGIEAVEGMLVARSLMYSRVYFHRTVKIAEGMLIRAVEFALDEGELEDFWKMTDDRLVIELEDLGDFPGDIIRRIRRRKLFKAAVIIGPEDLTAEEKKSLTTLYRSQKKRKKIESELAEIVGAREGEVMVELSIPELILSEPRLKQVEVNVLLSGGKVEPIGKVTPLASAIKRRQTPRWILLVATLPEYMEGVKRVWREVILE | not soluble
3 | MGYLKNHWWKRWIRRRGCKLAGGPASVGKRTTLVLEERVELGHLRIVPPRLEIGAYSYVRSGTDLSLVASIGRFCSIGSDCFIGQEKHTHPSDWVSSHPFQHTGTALRYEPALSYAEIGHDVWIGHSAMVMEGVKVGTGAIIATRAVVTRDVPPYAIVAGTPAQVIRYRHPPEIIEGLLASRWWELDSAFLTGLPLDRPREFLAALEAREAPRAAYRRMTITRQGCRLD | not soluble
4 | MTQLCSDVRVSPLPGTAKVGDTYILFEHHGPWSHDILDGGTFDKETSAALKAMGCGFYLIRRHGREGRIERPKKTAYLVFGSAGIAEKLMVDDVTDLLKLDVSGPGKNRQFGAEQEAQPIILVCTHAKRDACCAIKGRPMAQALTEEFPDSPVWECSHTKGHRFAPSMVLMPWGYTWGQLNKPAAFDMYRYAQRGQLFLPGNRGRGIWPMKGQIAEVAVAQQLAQEGETVTLGQLRVESIEEAQAHVADSHTARTWTVFLREEVVAGIVDSCHKPPKTGTAWVADRVKENGALEHHHHHH | soluble
5 | MGFLEDKKRTLMNLELAIREGLVDEEIIPILNKINEIDNYYTTSSCIGRVGIMEIPKDKNPKLYSRWLGKWHHYASYDELFNALKNKKEGYIVFVMNSPILHIACKDIESAKKMLELAIHSGLKASSIKSISDKRVIVEILTTYKVDTPIGEDGEIFVDNNYLKFLLDYSNSKLKRAREILMRWANRLDELKK | soluble
6 | MNRARDWMRQAERDLEHAQKSLELGHWEWACFAAHQAAEKALKAVYFALGAEAFGHALTHLLAGLHERLNLTPELRRCALVLDRLYIPTRYPDSWEAGAPLDYYGEEEARDALLCAGEILRFGQSVLAGPGETSSGP | soluble
7 | DRETAPTIKINQITLRYSANQEPVLSGVSADIESGDCVAVIGPNACGKTSLLLSLLGVVEPQAGFIMVNNKNLKQYDPETFREYAGYCPAEPDLFPGTLADNLRIAKPDATDEELIAALKHAGGESLFIALNSNLNIMLENNASNMLSAVEGSYINLARAFLKKSNFIILDEPLANRNPQARKAFSNTILALKGKATIVFSSHDPELIKLADKVIVLDKGSVVYAGPIPEKNSQEMESSNHE | not soluble
8 | LGTLFFSLEYNFERKAFVVNIKEARGLPAMDEQSMTSDPYIKMTILPEKKHKVKTRVLRKTLDPAFDETFTFYGIPYTQIQELALHFTILSFDRFSRDDIIGEVLIPLSGIELSEGKMLMNREII | soluble
9 | PNRRADDNATIRVTNLSEDTRETDLQELFRPFGSISRIYLAKDKTTGQSKGFAFISFHRREDAARAIAGVSGFGYDHLILNVEWAKPSTN | soluble
10 | MPGAVDFKERISRQRPHDRETYGHAGNTDLQDIVYQLESDRGRIVNSAAVRRLQQKTQVFPLERNAAVRSRLTHSLEVQQTGRFIVRTLFRQLGPRAAEVGLDGLEGALESLVEMACLMHDVGNPPFGHFGEYAINDWFERNLDALFERRIPPGQGDGLLQQRMLTDLKHFEGNAQAIRLVVKLLRLNLTYTQTAGLLKYVRPAYEPKPDKAAANHYLNKKPGFYLSEEAFVDELRRVLGMRPGTRHPVAYIMEAADDISYCLADIEDSVEKGILDIRQLADLLVKKFAVHHSPDAPIPGDADNMSFQRMVDYSLEKAEREPINKVSEFFIRLRVKMIHPLVQHAAQQFIDNFEAVHAGTLGRALMEDGSLPHAIVQTFKDVAMEWVFCHPEVETLELQGYRIIQGLLDFYAPLLRLPAEEFQALAEGRQAAAPHPQLLVRRLPSQQIKAYLEAMKGVAEDPLQRQWEFYHRCRMLQDFVSGMTDQHAQDEYRALSAL | not soluble
11 | MAHHHHHHMERRSEWVASLRSTLPQFSKRSAAPLERGNAAAILGPAPRRTLDKALSSHNTTSSLLLPSEWCEQATQRLITTLHGIVPPLQVQQTDYFLCSLIHPSYVQASTMRCESEALRRRVQQELRRTVCMPLELTMTGSKSLRLLRELTHYVEQGAAAAATSARARATLPAAPVAGRSEARDPSYGPSSWSSYPLDASWPELHSADSTAFVQAFQRAGLDSLVLYDKSFFAASSTLTDNISGAGSAEVSLAAFTALCGSIELVSGWCSLLQFVDRVASEQRGLERNTDGHE | not soluble
12 | MAHHHHHHMLYHYDILKYNSNHEYNNCSYFKNTFVHFFDYIYNIKMMKEYNDLKAKICINKEFNILFNILNKMNYSFAYRDKKLIKMNDCLYHTYHIIGIKKISSIGYIFNFKNELNDNFSKVLKTKISNILSIEDIYFLFNRFFYFLLMYIRKFCCFSNKKDTNIPQNEAETFVNSVCNCKQDNCCYKIKTIVLINNIQ | not soluble
13 | MGSDKIHHHHHHMTTGKLSHAHLCGWLRFKHLTLLTTLAESRNMHATARVMHLSQPAASKMLRDLEVYFGFALFERLPRAMQPTELGEQVIRHAWILLNDMERLVDDINDLREGGYGQLLIGAIAAAAPEILPAAIARLKQARPRLSVSLQEQTSDRLLLELEHKRLDLVIGRLTHVSQHNLFDFEPLLDEPLRVVVRRDHPLTRRGEAPSLDELSHWPWILHPLSSPMRGVFESALAEEGIATPANVVETTSIQATLQLLQSSDMLAVLPRSVMRRPLAGGQYVVLERVIGKPLDYYGIITRRQEPLSPAVEELVVHLRRLAAEADGR | not soluble
14 | MPSPSPKGLPVKQYAVQSQLPVYEWPDVGSGEYDVGVVASFGRLLNEALILKFPYGILNVHPSCLPRWRGPAPVIHTVLHGDTVTGVTIMQIRPKRFDVGPILKQETVPVPPKSTAKELEAVLSRLGANMLISVLKNLPESLSNGRQQPMEGATYAPKISAGTSCIKWEEQTSEQIFRLYRAIGNIIPLQTLWMANTIKLLDLVEVNSSVLADPKLTGQALIPGSVIYHKQSQILLVYCKDGWIGVRSVMLKKSLTATDFYNGYLHPWYQKNSQAQPSQCRFQTLRLPTKKKQKKTVAMQQCIE | soluble
15 | MFIKGVILSSYGVNGYARVKSISNNFCDFINLKNNKVLLKKSNSSSVEVKVVDVNIKGNSLFLKFEEIDTPEAVRPLIGFELWVDDSLASSLKEGEYYLGKLIGYAIVNNNKKLGEVVAFFEYLNSVFLEVRVGIKFFFIPFLSIYIGDINTQEKTIELKVLDLLKLEHHHHHH | not soluble
16 | SRRSLRAGKRRQTAGRKSKSPPKVPIVIQDDSLPAGPPPQIRILKRPTSNGVVSSPNSTSRPTLPVKSLAQREAEYAEARKRILGSASPEEEQEKPILDRPTRISQPEDSRQPNNVIRQPLGPDGSQGFKQRR | soluble
17 | MGSDKIHHHHHHMKHAYLIIAHNEFEILKRLIQALDDERNDIYIHFDRKLNHYPDCRTSYAKLTFLEERMDVRWGDISVVDAEFALFDEAYRRGEYSYYHLLSGVDMPLKTQNYIHRFFEKNAGKEFVGYYQGNISKEIDRKVCRWHLFPKSFKETEGGLAVTKRVLRAGCVRLQSLLGIRRNKDINFRKGTQWLSISNELVGYLLQQQKEVRRVYTHTFCADEIFVQTICWNSSFRDRVYDMHDEGHGCLRMIGWKDNQLEEWKEKDFEILMNSEALFARKFSIRHIEVVDQILNEISK | not soluble
18 | MKLTPKELDKLMLHYAGELAKKRKEKGIKLNYVEAVALISAHIMEEARAGKKTAAELMQEGRTLLKPDDVMDGVASMIHEVGIEAMFPDGTKLVTVHTPIEANGKLVPGELFLKNEDITINEGKKAVSVKVKNVGDRPVQIGSHFHFFEVNRCLDFDREKTFGKRLDIAAGTAVRFEPGEEKSVELIDIGGNRRIFGFNALVDRQADNESKKIALHRAKERGFHGAKSDDNYVKTIKE | soluble
19 | MILAIFSLRLLLIPTIDEPESIVTQLENAIDPVTQVPDFSAITDVAEKKRAFFDFLRPIVQQQNAIIASEREFITDMLAIVENGNALSDSQSAQLNQIFDKYLYAARNVDAKSLNSLLKRVDIIPESMVLIQAANESGWGSSRFAREGFNFFGEWCFSNGCGIVPSSRGSGKTHEVKIFPSVDASVSSYMRNLNSNTAYNLFRSIRADLRAQEAELNADQLIYGLVNYSERQEAYIDELLDMLRHNAKYLVKADV | soluble
20 | MGSDKIHHHHHHMDKPMTENPVHPAEAGPSGPADAAGKAPGLAAVESRQRMRDGTELLLRTWEPDPCMFPETVGCVLLVHGLAEHCGRYQHVAEVLCGLGLRVRAYDQRGHGASGGARMVAEHPDAYLNDLVEIHDAAVRVWKELPILLGHSMGGLVAARFATARLRPVRALVLSSPALALRLSPTMLTIHRVLLTLAPRLRVPNPIDARMLSHDAHVVARYRADPLVQTTITAGVLESFIRGMAQAQTDAPRLEAPMLMLVGGADKIVDPGGSRTFFDHAPADLREEVWFGEGYHEIFNEAEPLRSKVFAALTDWLRRHLAQPV | not soluble
21 | GEVDMTIRGNITYSKNEVLEKDEENQVYSYLYQKGYRVDQVKGLIAEGLFADYDDIRTSPKQEFGTVQPGDIKYKDVNGDGVVNDNDKVAIGATTTPNLVYGIGASFAWKGIDVNVHFQGAGKSTFPIYGKCVYAFSESDWGNIFKDMISDRWVDSETAAKLGLHANENPNATYPRLTYGENKNNQQTSTYWMRDGRYIRLKNLDIGYTLPKSIVNKLHFNNIRIYIAGSNLITWSKFKTWDPETGNPRGEAYPLTKSVTMGLSVNL | not soluble
22 | MGSDKIHHHHHHMPLLDIRNLTIELDTPEGTVKVLEKVSLTINPGEIHGLVGESGSGRSLLAKAILGVLGPNWHIIADRMMWDGKNLLEMSSKQRRCLMGSEMAMIFQDPSGSLDPVKTIGSQLIEAMVPNKNIPFWRRGKATYLNAQKWLHKVGIKKPKQLMKCYPWELSEGECQKVMIAMAVANHPKLLIADEPTNSMELNTQAQIFRLLSQLNQLQNVSILLVSHELETMVHWCDNLTILYSGQVMESGPVSEMVAMPYHPYTRALLKNLPDHTEKMRHKANLPTLQGSSPSLQHLPAGCRLGPRCPEAQRQCVKQPNLEHIKDRYFACHFPYQSEQEDDDAIA | not soluble
23 | MSTSVKHREFVGEPMGDKEVTCIAGIGPTYGTKLTDAGFDKAYVLFGQYLLLKKDEDLFIEWLKETAGVTANHAKTAFNCLNEWADQFM | not soluble
24 | MGSDKIHHHHHHMSAALSCGTIHGVGLGPGAPDLLSVRSDRLVRGARHVAYFRKAGRPGQARRIVEGMLRPDVIEIPMEYPVTTEIPLSDPRYNDCLSAFYAECTQRLVMLAQAGEDVVVLCEGDPFFYGSFMHLHTRLAGTVPVAVVPGITGMAGAWNATGIPITWGDDVLTIAMATLPEDELVRRIRDTDALVVMKIGRNLPKLRRAVAAAGREDAAWLVEHAAMPGQRVTRLIEAETVTPYFSILLIHGQGRRP | not soluble
